From paper PMC8745601 (International Journal of Molecular Sciences, 2021)
Like-named read-outs stand apart in the source and are kept apart here.

Assays:
[1] = system: breast cancer cell lines MCF-7, MDA-MB-231, ZR-75-1; experiment: Resazurin cell viability assay in breast cancer cell lines; settings: 100 µM MPP+, 100 µmol/L doxorubicin, 72 h
Description: Resazurin-Assay: To determine cell viability, cells were seeded at a density of 10,000 cells/well in 96-well multiplates. […] Afterward, 100 µL from each well was placed in a cavity of a 96-well plate, and the fluorescence was determined on a microplate reader (TECAN infinite M200, Tecan GmbH, Crailsheim, Germany) at an excitation wavelength of 530 nm and an emission wavelength of 590 nm.

[2] = molecular target: T1, P-gp (Homo sapiens, UniProt P08183); experiment: Transwell assay, MDCKII cells stably expressing P-gp; format: cell-based; settings: PSC833 10 µmol/L; 100 µmol/L doxorubicin
T1 construct: expressed in transfected cells; host or cells: MDCKII
Description: In brief, MDCKII cells stably expressing P-gp or BCRP were seeded on 0.4 µm Transwell® membrane inserts (200.000 cells/insert; Ø6.5 mm, growth area 0.33 cm2) and allowed to differentiate for five days. The integrity of the monolayer was confirmed by monitoring the trans-epithelial electrical resistance (TEER) using the EVOMX system (WPI, Sarasota, FL, USA). […] Every 30 min, the incubation buffer was removed from the receiver compartment and replaced by a freshly preheated buffer for a total time of 2.5 h.

[3] = substrate: COc1cccc2c1C(=O)c1c(O)c3c(c(O)c1C2=O)C[C@@](O)(C(=O)CO)C[C@@H]3O[C@H]1C[C@H](N)[C@H](O)[C@H](C)O1
[4] = substrate: COc1cccc2c1C(=O)c1c(O)c3c(c(O)c1C2=O)C[C@@](O)(C(=O)CO)C[C@@H]3O[C@H]1C[C@H](N)[C@H](O)[C@H](C)O1; experiment: cells, lysate or membranes; settings: other: MDCKII-OCT3; doxorubicin 0–100 µmol/L; 3 min; mean ± SD; 37.0 °C

T1 sequence (P08183 whole entry): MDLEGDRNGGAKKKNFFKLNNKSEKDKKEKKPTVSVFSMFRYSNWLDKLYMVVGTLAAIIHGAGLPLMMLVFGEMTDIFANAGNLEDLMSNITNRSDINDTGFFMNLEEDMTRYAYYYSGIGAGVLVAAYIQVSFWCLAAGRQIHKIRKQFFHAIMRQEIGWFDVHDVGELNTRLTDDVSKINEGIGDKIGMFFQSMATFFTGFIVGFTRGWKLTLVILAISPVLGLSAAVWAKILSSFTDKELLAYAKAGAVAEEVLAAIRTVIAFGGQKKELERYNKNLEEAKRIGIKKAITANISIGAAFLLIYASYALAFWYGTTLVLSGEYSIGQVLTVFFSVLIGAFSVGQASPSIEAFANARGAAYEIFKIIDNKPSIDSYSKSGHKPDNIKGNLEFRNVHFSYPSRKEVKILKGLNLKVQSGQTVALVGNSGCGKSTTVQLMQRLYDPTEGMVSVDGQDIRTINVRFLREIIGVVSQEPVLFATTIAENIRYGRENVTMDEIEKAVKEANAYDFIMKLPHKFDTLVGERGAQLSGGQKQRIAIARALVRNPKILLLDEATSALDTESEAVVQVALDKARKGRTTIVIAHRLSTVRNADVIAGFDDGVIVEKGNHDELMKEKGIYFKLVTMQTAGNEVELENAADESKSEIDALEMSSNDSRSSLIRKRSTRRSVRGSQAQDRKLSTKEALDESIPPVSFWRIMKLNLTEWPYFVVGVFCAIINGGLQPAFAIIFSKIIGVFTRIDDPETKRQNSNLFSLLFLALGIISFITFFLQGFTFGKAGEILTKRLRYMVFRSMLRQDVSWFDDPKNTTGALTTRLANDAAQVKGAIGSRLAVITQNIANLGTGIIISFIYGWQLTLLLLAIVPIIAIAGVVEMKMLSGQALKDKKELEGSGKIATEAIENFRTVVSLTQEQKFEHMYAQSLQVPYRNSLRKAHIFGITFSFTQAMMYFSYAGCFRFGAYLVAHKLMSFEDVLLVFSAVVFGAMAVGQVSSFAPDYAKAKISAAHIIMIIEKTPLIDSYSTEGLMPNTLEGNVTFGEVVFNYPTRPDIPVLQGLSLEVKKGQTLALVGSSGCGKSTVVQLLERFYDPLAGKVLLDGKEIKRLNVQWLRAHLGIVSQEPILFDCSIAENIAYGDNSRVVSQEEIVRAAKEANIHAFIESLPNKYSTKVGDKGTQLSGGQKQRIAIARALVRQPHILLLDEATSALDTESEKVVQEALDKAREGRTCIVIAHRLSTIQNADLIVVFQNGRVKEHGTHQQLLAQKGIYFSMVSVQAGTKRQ

For `C[n+]1ccc(-c2ccccc2)cc1` [MPP+], the “effect of inhibitor on cytotoxic effects of doxorubicin” value [1] was “significantly attenuated”.

`C/C=C/C[C@@H](C)C(=O)[C@H]1C(=O)N[C@@H](C(C)C)C(=O)N(C)CC(=O)N(C)[C@@H](CC(C)C)C(=O)N[C@@H](C(C)C)C(=O)N(C)[C@@H](CC(C)C)C(=O)N[C@@H](C)C(=O)N[C@H](C)C(=O)N(C)[C@@H](CC(C)C)C(=O)N(C)[C@@H](CC(C)C)C(=O)N(C)[C@@H](C(C)C)C(=O)N1C` [PSC833] was tested, and the “effect of inhibitor on P-gp-mediated vectorial transport of doxorubicin” value [2] was “markedly reduced”.

B1: OCT2 (Homo sapiens) (protein)
chain: MPTTVDDVLEHGGEFHFFQKQMFFLLALLSATFAPIYVGIVFLGFTPDHRCRSPGVAELSLRCGWSPAEELNYTVPGPGPAGEASPRQCRRYEVDWNQSTFDCVDPLASLDTNRSRLPLGPCRDGWVYETPGSSIVTEFNLVCANSWMLDLFQSSVNVGFFIGSMSIGYIADRFGRKLCLLTTVLINAAAGVLMAISPTYTWMLIFRLIQGLVSKAGWLIGYILITEFVGRRYRRTVGIFYQVAYTVGLLVLAGVAYALPHWRWLQFTVSLPNFFFLLYYWCIPESPRWLISQNKNAEAMRIIKHIAKKNGKSLPASLQRLRLEEETGKKLNPSFLDLVRTPQIRKHTMILMYNWFTSSVLYQGLIMHMGLAGDNIYLDFFYSALVEFPAAFMIILTIDRIGRRYPWAASNMVAGAACLASVFIPGDLQWLKIIISCLGRMGITMAYEIVCLVNAELYPTFIRNLGVHICSSMCDIGGIITPFLVYRLTNIWLELPLMVFGVLGLVAGGLVLLLPETKGKALPETIEEAENMQRPRKNKEKMIYLQVQKLDIPLN
With B1 the Km [3] was 76.1 ± 42.8 µM.

B2: OCT1 (Homo sapiens) (protein)
chain: MPTVDDILEQVGESGWFQKQAFLILCLLSAAFAPICVGIVFLGFTPDHHCQSPGVAELSQRCGWSPAEELNYTVPGLGPAGEAFLGQCRRYEVDWNQSALSCVDPLASLATNRSHLPLGPCQDGWVYDTPGSSIVTEFNLVCADSWKLDLFQSCLNAGFLFGSLGVGYFADRFGRKLCLLGTVLVNAVSGVLMAFSPNYMSMLLFRLLQGLVSKGNWMAGYTLITEFVGSGSRRTVAIMYQMAFTVGLVALTGLAYALPHWRWLQLAVSLPTFLFLLYYWCVPESPRWLLSQKRNTEAIKIMDHIAQKNGKLPPADLKMLSLEEDVTEKLSPSFADLFRTPRLRKRTFILMYLWFTDSVLYQGLILHMGATSGNLYLDFLYSALVEIPGAFIALITIDRVGRIYPMAMSNLLAGAACLVMIFISPDLHWLNIIIMCVGRMGITIAIQMICLVNAELYPTFVRNLGVMVCSSLCDIGGIITPFIVFRLREVWQALPLILFAVLGLLAAGVTLLLPETKGVALPETMKDAENLGRKAKPKENTIYLKVQTSEPSGT
Work on B2 yielded a Km [3] of 4.66 ± 3.43 µM.

B3: OCT3 (Homo sapiens) (protein)
chain: MPSFDEALQRVGEFGRFQRRVFLLLCLTGVTFAFLFVGVVFLGTQPDHYWCRGPSAAALAERCGWSPEEEWNRTAPASRGPEPPERRGRCQRYLLEAANDSASATSALSCADPLAAFPNRSAPLVPCRGGWRYAQAHSTIVSEFDLVCVNAWMLDLTQAILNLGFLTGAFTLGYAADRYGRIVIYLLSCLGVGVTGVVVAFAPNFPVFVIFRFLQGVFGKGTWMTCYVIVTEIVGSKQRRIVGIVIQMFFTLGIIILPGIAYFIPNWQGIQLAITLPSFLFLLYYWVVPESPRWLITRKKGDKALQILRRIAKCNGKYLSSNYSEITVTDEEVSNPSFLDLVRTPQMRKCTLILMFAWFTSAVVYQGLVMRLGIIGGNLYIDFFISGVVELPGALLILLTIERLGRRLPFAASNIVAGVACLVTAFLPEGIAWLRTTVATLGRLGITMAFEIVYLVNSELYPTTLRNFGVSLCSGLCDFGGIIAPFLLFRLAAVWLELPLIIFGILASICGGLVMLLPETKGIALPETVDDVEKLGSPHSCKCGRNKKTPVSRSHL
B3 was tested, and the Km [4] was 13.0 ± 10.7 µM.
